For assay [1], the target named is CoREST (UniProt Q8CFE3). The assay is described as follows: FLAG co-immunoprecipitation, immunoblot quantitated with ImageJ. Conditions: NIH 3T3 cells transiently transfected; mean of two independent experiments; parent: est. 1.0; read off a plot. (In western blotting, separated proteins are transferred to a membrane and probed.)
Assay [2] concerns the target CoREST (UniProt Q8CFE3). Description: co-immunoprecipitation of endogenous proteins (Lsd1 IP'ed with CoREST), immunoblot quantitated with ImageJ. The note with it: primary MEFs; mean of three independent experiments; p<0.001 vs wild type; parent: est. 1.0; read off a plot.
Assay [3] concerns the target CoREST (UniProt Q8CFE3). The assay is described as follows: co-immunoprecipitation of endogenous proteins (CoREST IP'ed with Lsd1), immunoblot quantitated with ImageJ. The note with it: primary MEFs; mean of three independent experiments; p<0.005 vs wild type; parent: est. 1.0; read off a plot.

Chain of UniProt Q8CFE3 (Q8CFE3 whole entry): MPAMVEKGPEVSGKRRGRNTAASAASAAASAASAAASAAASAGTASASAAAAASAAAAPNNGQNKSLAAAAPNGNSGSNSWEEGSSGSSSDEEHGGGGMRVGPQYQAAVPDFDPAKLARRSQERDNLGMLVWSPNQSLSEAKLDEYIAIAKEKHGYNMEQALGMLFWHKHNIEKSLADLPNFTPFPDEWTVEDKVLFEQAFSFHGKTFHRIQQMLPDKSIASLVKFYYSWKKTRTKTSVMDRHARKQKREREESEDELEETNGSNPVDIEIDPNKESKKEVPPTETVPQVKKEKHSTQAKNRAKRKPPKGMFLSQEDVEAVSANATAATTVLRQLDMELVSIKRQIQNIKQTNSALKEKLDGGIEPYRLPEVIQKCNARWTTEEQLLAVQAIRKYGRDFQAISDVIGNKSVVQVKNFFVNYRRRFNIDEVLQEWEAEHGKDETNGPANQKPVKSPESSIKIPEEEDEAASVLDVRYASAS

“FLAG-tagged wild-type Lsd1 (lysine-specific demethylase 1) (from UniProt Q6ZQ88) E413G”: the ratio to parent in the assay with CoREST [1] turned out to be 0.89.

On to “FLAG-tagged wild-type Lsd1 (lysine-specific demethylase 1) (from UniProt Q6ZQ88) E413G; M448V”, for which, in the assay with CoREST [1], the ratio to parent was 0.09. On the same count and under the same terms, the figure for “FLAG-tagged wild-type Lsd1 (lysine-specific demethylase 1) (from UniProt Q6ZQ88) M448V” is 0.35. Take “FLAG-tagged wild-type Lsd1 (lysine-specific demethylase 1) (from UniProt Q6ZQ88) N535A”: in the assay with CoREST [1], the ratio to parent was found to be 1.8. Turning to “endogenous wild-type Lsd1 (from UniProt Q6ZQ88) E413G; M448V”, the figures for the ratio to parent with CoREST [2] and with CoREST [3] were 0.11 and 0.44, respectively.
